Biological target: 5-IAF-labeled p53-TAD A63C mutant (UniProt P04637)
Assay: fluorescence polarisation

FOXO4 Forkhead DNA-binding domain (FOXO4-DBD, residues 86-211) (from UniProt P98177 86-211) (domain or fragment)
Kd: 42 µM
